Laboratory results from paper PMC12990809.

How the values were obtained:
Assay in all cases: pulldown
Settings in all cases: 20 nM protein, 1.5 uM RNA pool; 20 mM HEPES pH 7.8, 70 mM KCl, 10 mM NaCl, 10% glycerol, 2 mM DTT, 0.1 ug/uL BSA; 30 min, 4 C
[1] = biological target: T1, snrpB2 (Dictyostelium discoideum) (UniProt Q54J05)
T1 sequence: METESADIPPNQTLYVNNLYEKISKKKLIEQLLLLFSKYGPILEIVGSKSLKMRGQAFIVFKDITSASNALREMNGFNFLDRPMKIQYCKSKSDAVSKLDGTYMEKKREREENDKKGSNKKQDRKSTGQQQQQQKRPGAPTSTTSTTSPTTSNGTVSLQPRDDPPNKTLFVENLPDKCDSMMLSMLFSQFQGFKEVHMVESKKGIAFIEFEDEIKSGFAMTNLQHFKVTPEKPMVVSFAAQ

[2] = biological target: pabpc4 (Xenopus tropicalis) (UniProt A0A8J0QFT8)
Chain of pabpc4 (Xenopus tropicalis) (A0A8J0QFT8 entry or part of it): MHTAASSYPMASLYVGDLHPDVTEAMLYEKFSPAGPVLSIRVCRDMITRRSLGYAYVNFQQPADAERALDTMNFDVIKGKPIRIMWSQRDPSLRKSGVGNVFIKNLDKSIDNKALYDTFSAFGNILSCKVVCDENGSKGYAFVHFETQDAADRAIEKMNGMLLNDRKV

[3] = biological target: T2, rbm14 (Xenopus tropicalis) (UniProt A0A8J0QJ94)
T2 sequence: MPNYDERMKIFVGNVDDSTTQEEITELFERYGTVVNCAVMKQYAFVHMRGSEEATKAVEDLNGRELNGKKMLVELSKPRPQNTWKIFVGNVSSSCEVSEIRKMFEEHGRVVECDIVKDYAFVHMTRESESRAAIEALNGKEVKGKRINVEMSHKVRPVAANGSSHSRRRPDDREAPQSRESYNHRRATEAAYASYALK

[4] = biological target: T3, rsp-3 (Caenorhabditis elegans) (UniProt Q9NEW6)
T3 sequence: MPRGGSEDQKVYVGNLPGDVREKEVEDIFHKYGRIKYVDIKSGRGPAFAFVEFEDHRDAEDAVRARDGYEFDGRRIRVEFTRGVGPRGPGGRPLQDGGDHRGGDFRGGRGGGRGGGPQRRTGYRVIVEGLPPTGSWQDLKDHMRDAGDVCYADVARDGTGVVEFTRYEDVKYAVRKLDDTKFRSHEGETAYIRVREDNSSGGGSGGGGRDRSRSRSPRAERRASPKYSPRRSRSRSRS

[5] = biological target: T4, Smp_006320 (Schistosoma mansoni) (UniProt G4VQQ6)
T4 sequence: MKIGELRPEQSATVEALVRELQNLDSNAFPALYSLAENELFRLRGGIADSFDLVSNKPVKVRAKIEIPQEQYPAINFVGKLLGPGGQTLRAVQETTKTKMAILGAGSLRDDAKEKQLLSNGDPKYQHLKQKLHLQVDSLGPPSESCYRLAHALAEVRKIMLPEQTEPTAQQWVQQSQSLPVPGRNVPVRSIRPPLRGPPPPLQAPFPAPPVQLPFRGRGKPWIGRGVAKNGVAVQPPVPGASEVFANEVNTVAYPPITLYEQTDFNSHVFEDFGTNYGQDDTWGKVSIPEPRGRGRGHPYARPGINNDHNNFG

[6] = biological target: T5, PF14_0151 (Plasmodium falciparum) (UniProt Q8ILU3)
T5 sequence: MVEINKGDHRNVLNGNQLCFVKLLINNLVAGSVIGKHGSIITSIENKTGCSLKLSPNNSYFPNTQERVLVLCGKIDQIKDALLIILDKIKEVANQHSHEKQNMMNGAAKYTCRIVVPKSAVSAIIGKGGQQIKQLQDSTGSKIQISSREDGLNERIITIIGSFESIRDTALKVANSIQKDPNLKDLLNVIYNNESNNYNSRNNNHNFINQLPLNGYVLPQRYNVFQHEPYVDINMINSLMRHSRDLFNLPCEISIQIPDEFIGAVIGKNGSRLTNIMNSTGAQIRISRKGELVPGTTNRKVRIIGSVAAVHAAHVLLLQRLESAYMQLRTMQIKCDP

[7] = biological target: T6, PK01594.1 (Cannabis sativa) (UniProt A0A803NG34)
T6 sequence: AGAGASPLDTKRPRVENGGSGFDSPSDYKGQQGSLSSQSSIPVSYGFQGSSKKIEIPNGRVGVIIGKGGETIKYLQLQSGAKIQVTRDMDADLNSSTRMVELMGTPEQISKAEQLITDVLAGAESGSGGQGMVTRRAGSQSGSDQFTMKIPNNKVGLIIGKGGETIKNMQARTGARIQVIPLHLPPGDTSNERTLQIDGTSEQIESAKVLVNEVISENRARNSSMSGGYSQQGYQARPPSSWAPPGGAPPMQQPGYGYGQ

[8] = biological target: T7, CG15440 (Drosophila melanogaster) (UniProt Q7KU43)
T7 sequence: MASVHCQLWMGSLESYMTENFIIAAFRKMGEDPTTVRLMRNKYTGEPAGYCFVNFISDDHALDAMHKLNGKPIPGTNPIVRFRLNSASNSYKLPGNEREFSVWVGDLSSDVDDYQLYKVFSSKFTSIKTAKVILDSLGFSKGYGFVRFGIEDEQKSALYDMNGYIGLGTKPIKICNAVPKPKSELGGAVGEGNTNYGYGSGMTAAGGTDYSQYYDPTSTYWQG

[9] = biological target: T8, grld-1 (Caenorhabditis elegans) (UniProt H2KYB8)
T8 sequence: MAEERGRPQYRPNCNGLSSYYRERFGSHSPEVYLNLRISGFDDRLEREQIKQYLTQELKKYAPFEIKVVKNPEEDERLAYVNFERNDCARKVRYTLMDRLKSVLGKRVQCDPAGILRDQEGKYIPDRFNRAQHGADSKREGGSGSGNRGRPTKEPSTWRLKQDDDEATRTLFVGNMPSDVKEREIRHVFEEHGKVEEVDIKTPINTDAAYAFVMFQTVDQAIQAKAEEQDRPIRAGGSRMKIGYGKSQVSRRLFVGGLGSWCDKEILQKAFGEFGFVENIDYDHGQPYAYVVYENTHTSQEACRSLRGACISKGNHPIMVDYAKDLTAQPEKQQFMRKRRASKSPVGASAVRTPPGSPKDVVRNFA

## AGCAC [RNAcompete motif RNCMPT00507]
[1]
  binding signal (z-score (mean of top ten 7-mers)): 12.9

## AAAAAAG [RNAcompete motif RNCMPT00511]
[2]
  binding signal (z-score (mean of top ten 7-mers)): 13.4

## CGACGA [RNAcompete motif RNCMPT00514]
[3]
  binding signal (z-score (mean of top ten 7-mers)): 10.1

## AGGACGA [RNAcompete motif RNCMPT00503]
[4]
  binding signal (z-score (mean of top ten 7-mers)): 7.55

## AUAAAUA [RNAcompete motif RNCMPT00500]
[5]
  binding signal (z-score (mean of top ten 7-mers)): 8.79

## AUACANA [RNAcompete motif RNCMPT00505]
[6]
  binding signal (z-score (mean of top ten 7-mers)): 8.57

## AUAUUGU [RNAcompete motif RNCMPT00478]
[7]
  binding signal (z-score (mean of top ten 7-mers)): 7.33

## GAUAUU [RNAcompete motif RNCMPT00513]
[8]
  binding signal (z-score (mean of top ten 7-mers)): 13.9

## ACUACUA [RNAcompete motif RNCMPT00509]
[9]
  binding signal (z-score (mean of top ten 7-mers)): 8.74
